Results: publication PMC9636267 (2022)
Read-outs that look alike come from different tables or passages of the source.

B2: HCoV-229E RBD (294–435 aa) (domain or fragment)
chain: PVYHKHTFIVLYVDFKPQSGGGKCFNCYPAGVNITLANFNETKGPLCVDTSHFTTKYVAVYANVGRWSASINTGNCPFSFGKVNNFVKFGSVCFSLKDIPGGCAMPIVANWAYSKYYTIGSLYVSWSDGDGITGVPQPVEGV
B3: HCoV-229E S ectodomain (17–1115 aa), 229E S trimer (domain or fragment)
chain: QTTNGLNTSYSVCNGCVGYSENVFAVESGGYIPSDFAFNNWFLLTNTSSVVDGVVRSFQPLLLNCLWSVSGLRFTTGFVYFNGTGRGDCKGFSSDVLSDVIRYNLNFEENLRRGTILFKTSYGVVVFYCTNNTLVSGDAHIPFGTVLGNFYCFVNTTIGNETTSAFVGALPKTVREFVISRTGHFYINGYRYFTLGNVEAVNFNVTTAETTDFCTVALASYADVLVNVSQTSIANIIYCNSVINRLRCDQLSFDVPDGFYSTSPIQSVELPVSIVSLPVYHKHTFIVLYVDFKPQSGGGKCFNCYPAGVNITLANFNETKGPLCVDTSHFTTKYVAVYANVGRWSASINTGNCPFSFGKVNNFVKFGSVCFSLKDIPGGCAMPIVANWAYSKYYTIGSLYVSWSDGDGITGVPQPVEGVSSFMNVTLDKCTKYNIYDVSGVGVIRVSNDTFLNGITYTSTSGNLLGFKDVTKGTIYSITPCNPPDQLVVYQQAVVGAMLSENFTSYGFSNVVELPKFFYASNGTYNCTDAVLTYSSFGVCADGSIIAVQPRNVSYDSVSAIVTANLSIPSNWTTSVQVEYLQITSTPIVVDCSTYVCNGNVRCVELLKQYTSACKTIEDALRNSARLESADVSEMLTFDKKAFTLANVSSFGDYNLSSVIPSLPTSGSRVAGRSAIEDILFSKLVTSGLGTVDADYKKCTKGLSIADLACAQYYNGIMVLPGVADAERMAMYTGSLIGGIALGGLTSAVSIPFSLAIQARLNYVALQTDVLQENQKILAASFNKAMTNIVDAFTGVNDAITQTSQALQTVATALNKIQDVVNQQGNSLNHLTSQLRQNFQAISSSIQAIYDRLDTIQADQQVDRLITGRLAALNVFVSHTLTKYTEVRASRQLAQQKVNECVKSQSKRYGFCGNGTHIFSIVNAAPEGLVFLHTVLLPTQYKDVEAWSGLCVDGTNGYVLRQPNLALYKEGNYYRITSRIMFEPRIPTMADFVQIENCNVTFVNISRSELQTIVPEYIDVNKTLQELSYKLPNYTVPDLVVEQYNQTILNLTSEISTLENKSAELNYTVQKLQTLIDNINSTLVDLKWLNRVETYIKWP

Key:
Assay in all cases: SPR
[1] = target: B2
[2] = target: B3
[3] = target: B2
[4] = target: B3
[5] = target: B2
[6] = target: B3
R14 [7] = target: R14
R17 [8] = target: R17
S10 [9] = target: S10
R10 [10] = target: R10
S02 [11] = target: S02
S15 [12] = target: S15
S08 [13] = target: S08
R07 [14] = target: R07
R14 [15] = target: R14; remark: listed apart in the source
R17 [16] = target: R17; remark: listed apart in the source
S10 [17] = target: S10; remark: listed apart in the source
R10 [18] = target: R10; remark: listed apart in the source
S02 [19] = target: S02; remark: listed apart in the source
S15 [20] = target: S15; remark: listed apart in the source
S08 [21] = target: S08; remark: listed apart in the source
R07 [22] = target: R07; remark: listed apart in the source
R14 [23] = target: R14; remark: listed apart in the source
R17 [24] = target: R17; remark: listed apart in the source
S10 [25] = target: S10; remark: listed apart in the source
R10 [26] = target: R10; remark: listed apart in the source
S02 [27] = target: S02; remark: listed apart in the source
S15 [28] = target: S15; remark: listed apart in the source
S08 [29] = target: S08; remark: listed apart in the source
R07 [30] = target: R07; remark: listed apart in the source

B1: Fab S11 (Fab, V domains shown)
VH: EVQLVESGGGLVQPGGSLRLSCAASGFNISSSYIHWVRQAPGKGLEWVASIYSSYGYTYYADSVKGRFTISADTSKNTAYLQMNSLRAEDTAVYYCARWWITFGGAGGGLDYWGQGTLVTVSS
VL: DIQMTQSPSSLSASVGDRVTITCRASQSVSSAVAWYQQKPGKAPKLLIYSASSLYSGVPSRFSGSRSGTDFTLTISSLQPEDFATYYCQQGYAWRNTFGQGTKVEIK
With B1 the koff [1] was 0.00081 s⁻¹, the koff [2] was 0.00054 s⁻¹ and the Kd [3] was 0.2 nM. For the same binder, the Kd [4] was 0.4 nM, the Kd [5] was 0.21 nM and the Kd [6] was 0.38 nM.

B2 gave a Kd (R14 [7]) of 0.81 nM, a koff (R14 [7]) of 0.003 s⁻¹ and a Kd (R17 [8]) of 0.92 nM. It also gave a koff (R17 [8]) of 0.0025 s⁻¹, a Kd (S10 [9]) of 0.51 nM and a koff (S10 [9]) of 0.0031 s⁻¹. The Kd (R10 [10]) was 0.32 nM, the koff (R10 [10]) was 0.0019 s⁻¹ and the Kd (S02 [11]) was 0.49 nM. The koff (S02 [11]) was 0.0018 s⁻¹, the Kd (S15 [12]) was 0.26 nM and the koff (S15 [12]) was 0.00097 s⁻¹. For the same binder, the Kd (S08 [13]) was 2.9 nM, the koff (S08 [13]) was 0.0053 s⁻¹ and the koff (R07 [14]) was 0.0016 s⁻¹. The Kd (R14 [15]) was 0.8 nM, the Kd (R17 [16]) was 0.9 nM and the Kd (S10 [17]) was 0.5 nM. The Kd (R10 [18]) was 0.3 nM, the Kd (S02 [19]) was 0.5 nM and the Kd (S15 [20]) was 0.3 nM. The Kd (S08 [21]) was 3 nM and the Kd (R07 [22]) was 2 nM.

Binder B3 has a koff (R14 [23]) of 0.0039 s⁻¹, a koff (R17 [24]) of 0.0024 s⁻¹ and a Kd (S10 [25]) of 0.28 nM. It also gave a koff (S10 [25]) of 0.0018 s⁻¹, a Kd (R10 [26]) of 0.43 nM and a koff (R10 [26]) of 0.0012 s⁻¹. It also gave a Kd (S02 [27]) of 0.75 nM, a koff (S02 [27]) of 0.0035 s⁻¹ and a Kd (S15 [28]) of 0.44 nM. The koff (S15 [28]) was 0.00098 s⁻¹, the koff (S08 [29]) was 0.0054 s⁻¹ and the koff (R07 [30]) was 0.0011 s⁻¹. The Kd (R14 [15]) was 2.7 nM, the Kd (R17 [16]) was 2.4 nM and the Kd (S10 [17]) was 0.3 nM. It also gave a Kd (R10 [18]) of 0.4 nM, a Kd (S02 [19]) of 0.8 nM and a Kd (S15 [20]) of 0.4 nM. It also gave a Kd (S08 [21]) of 2.4 nM and a Kd (R07 [22]) of 2 nM.
